Experimental data from the DeepSol protein solubility set.

Experiment: soluble on expression in E. coli; label from the status in PepcDB or PDB records

Row | Sequence | soluble on expression in E. coli
1 | MEKGWKRADLHVHTTCSFDVLPAKDLNPLSLYEKSLEIGMDFVTFTDHDTVEAYEILGWDREKLTPGAEMTLYDPEFAGHTLHINVFELDREYFSELREIAEIEHDLKSFTGYLKRHRLPFVYNHPFWFEFHRQPNPSAVPKLAKLFPVLEYNMHELKQKNELTIALAERFGKSIVATTDTHTGKMGQVYTLAKGDSFREYFRNIEKGRNYIVTGDLTRELLIEEMNTWIDLIFEKSQKNRDIKNYLTGIKSLDALVKISRSTLLNYSPRLNRTAMNLFYMISNTGLPASFYIHSEKSFAREIEKDIEINNRK | not soluble
2 | MNHPAHHGPTVTPKRRHPDSTGAAPVGIVIATRNRRASLAVTVRNLLALPERPDVLVVDNASTDDTRAMLARDFPQVRVLPLPYNRGALARTHGVRALDTPYVAFSDDDSWWAPGALGAAARHFDDHPRLGLLSARTLVGPGDAADPLNDLLADSPLGTATDLPGTQVLGFLGCAAVARRTAYLDAGGYHPLLFFGGEETLLAYDLAARGWGVTHCPDVIAHHHPHPRPRTGRPAVVRRNALLTAWLRRPLPHALARTRALAADARRDPHARHALRETLTRLPAALRARRPLPPHVERAARLLDGADGPDGPGGAVSLEHHHHHH | soluble
3 | PNISDIIEQYLKQVLNMSDQDIVEIKRSEIANKFRCVPSQINYVINTRFTLERGYIVESKRGGGGYIRIMKVKTKSEAQLIDQLLELIDHRISQSSAEDVIKRLMEEKVISEREAKMMLSVMDRSVLYIDLPERDELRARMLKAMLTSLKYKLEI | soluble
4 | MRKLFIALTFLLVPACLSAQLGGKIYLQRADSLLQRVLSLYEVKKYGLLMETYPRNPKQQITYTANTGSEVTQQEVSFLWPYSAMVSGCVSLYKTSGNKKYKKLMDKQIKPGLDLYWDTTRQPECYQSYPAFAGQNDRYYDDNDWVAIDFCDYYAVTKNKEYLKKAIALHDYIYSGWSDELGGGIYWCEQKKESKNTCSNAPATVLCMKLYKLTKDKKYLDQAMATYQWTRDNLRDPSDFVYWDNKNLQGKIGYAKYTYNSGQMIQAGVLLYQATGDEQYLKDAQQTAKGSYEHFLKPQPTVKGEMKFFPSSPWFNVILFRGLKALYEVDKNDTYVKAMIDNADYAWQYTRDENGLLNNDWSGNRKDKFKSLLENSCMIELYSEISELLEHHHHHH | not soluble
5 | SNAMFKEAINNYLHTHGYESIDLKAVLFDMDGVLFDSMPNHAESWHKIMKRFGFGLSREEAYMHEGRTGASTINIVSRRERGHDATEEEIKAIYQAKTEEFNKCPKAERMPGALEVLTKIKSEGLTPMVVTGSGQTSLLDRLNHNFPGIFQANLMVTAFDVKYGKPNPEPYLMALKKGGFKPNEALVIENAPLGVQAGVAAGIFTIAVNTGPLHDNVLLNEGANLLFHSMPDFNKNWETLQSALKQD | soluble
6 | MGSDKIHHHHHHDEEPSDKGSTSPQEPVYTTFTDAGEVVVPGVLPANFTPRSVRVKGDTLFVANTNAADRSVLLLNLTTGELIGRIDSWVRKGVKETFNAEIGDMAVSDRYIFVGMYNSRINIFDRRTLQFVNAIGRSDGKWGDDIYSMTHCYGLRECGERLMVRDKNTIRGYWIYEAVTEPAFRVPWIGKVKVPEGVGYDYQARIHGMAEYDGRMYLTDWYNKSVQVFTPSKMEIVFGEETHITSDAVFKYDDIQPLGLLAYGGELLMSVQKSGKIQRYDPETGDLLGVLAEFPGKEIGRMEIARGMLYYIDLKAGKLMKAKGE | not soluble
7 | AHHHHHHGSGWWYTTNLRSRSNDMDKPEEILNEKDIIKRAYKFGFYVGLHGHTDWFGWVAEVKKKIYEEAKHLGVYEEVKKAYIKGKKAGRVEREKRIHLGLMKQTTSEIPEKIKIVSIERNRGSIASLNFPKIEDMPKTIKKPRFFRLPKILRGGEE | not soluble
8 | MGSDKIHHHHHHMIKSKLKGFAAVTVACLAVTACGSDSNNEDGTDQNATYVQFYNASAGSTATALKVADKTYESVIYGDTMPRFTSTAGVSAIEVMAKDASDKDISIYKEDIDLKVATDHFFVLHGDFAEPKLLNINYSRTELDKLNEVAENSKMQLLIANTAVHAQAFDAYVSKSTQTFADAVMLGSVAYGEASQPQVMDTGEYKVYLTPAGTTNVSYTTANIKFSAKVPYKLIIREGFGASDSKITLDSVDSTTNVRNHVALEASVDYRVFNGLGSHIIDVKVASSKQETLFSEVPSFGVTAYQGAEFNDFGVSVFDHGTQNKLLDNVLITLNQDDIKTIFIYEQATEQGSQVKAMEMKQTQTPSPYSFKFDIVSFADKSNLTVYFLKANDTIETAVNKITAVNPASPQSVTVPAGEYSIKVIAVENGTKTVVYASDLMDFSNEDNVTMVLNKDPATSFGYNLIKI | not soluble
9 | MGSDKIHHHHHHMFAGAWKNYRNILCVRPDNMGDVLMSQPAMRALKESVPGRKITLLTSTAGACIAPFIPEVDETIPFDVPWVKTTETNGAQRLLALAGELLALQLDAAVIFTVYSQNPLPAGMLCYLAGIKAVLGYCRENPYQLINQWVPDREPLDYVVHEVERQLRLVEMAGAKTSDTRLLLKIPEETRKEATDRVWEILNVAGIRAGMGWLVLHAGVSEEKRLYPARDYITACQSLIRQGYKILLTGSGSERDYVDQIARQLSDAAINVAGELSIAELIVLVEAAPVLISNNTGPVHIATAVGTPVVVLYAMTNPQHTPWQVPSKVLYFEVLPELRTKNQLLQSFPGSSTPRASPEAIVAAVGELVSPRRKHGSFIPSPLRNPVPTCNSLPDTALAACFTPHNEYGMCPPIRYGEDV | not soluble
10 | MGSDKIHHHHHHMKEIVHLQSFLAVARTGSLTLAAEELHVTPSAVSHRLRQLEQRLGAKLLRRTPHGMALTGEGQRFKDRISDPIEAIEMALRPETGQEGPLTVSVMPWFASSWLMPRLKRFQLRCPDARIRIETSSQLSDLAHGHVTAALRFGRGDWPDIEVEPLFDEWVIPVASPDVVAQMGSNAQDPARWPRLPDPDDLWSSWFGDEVMGEAMRSSIELHDTSSLTEAAVNGMGVVLGRYTHVAPWLERGDLVTLASQWIRMPKRHYLVRSRHRPMHSCFPHFRRWLHDEVKKYQTSASSEFY | not soluble
11 | GPGSMSTTAHATSMGPLPYPNALQSRHTTTEQRQIAAAAVRAYQGTLEQEKVLLQENDALLSEEEAGRLQRRVDNQAAADATAAQFRDRACKVVASVPGEQHQSEGGVIDIFHAACDGDVAALDACLRSASDINALGQPDPARYNGFQFKQRWLFRAPPLVFAAAFGREEAVRLLLEHGADPHVASTTGLRAQDYAAQRGYSAIVLMLTSGAPQ | soluble
12 | MLDVPVLLAAVSPDSPCGDDLEYDAAFLELERIAQGQPERQMGDAVLPAEPPEWPRVRALASELFGRSKDLRVANLLLQSNVALDGLDGLADGLLLVRELLGQYWDGVYPLLDADDDNDPTFRINALTGLVAEPLLQLVWAIPLVRSRAFGPVNLRAALNAAGLQRFASETLSPEQIAGAFADADADALAATRRALDGAQEHALAIESGVAERVGSAQGLDLGPLRQLLRQALQVFDLYGPQGAGESLAPGAEAVADEQVGAAPVAAVAAPAPRASGEIANREDVLRQLDRLLEYYVRHEPSSPVPVLLKRAKTLVTADFAEIVRNLIPDGISQFETLRGPESE | not soluble
13 | MSLNRNAILSKRQKQFIERVAWGASYKEVADFFHVSWSTVDNTLRNAKTKLGLSKVTELGAWWFCTNYGISFDLSPIARQCTAGIILFLFSLGEVTTITDASYTMQIVRRTRTEYRIRRHETSIYQPYIINEGHHHHHH | not soluble
14 | MRIELSIKADDSLVSFSHQHLLVGTLQKWLGENDMHGKSISYSFSRLNGGKLVSELNSILFADWANMFVSAHDPELIRRMLAGIRQDPEMFKSLCVREVTVIEDPDMTDREIFFPASPILLKRWREDNGFDHIVYTDEAANALLTENLRKKLQAVGIDDPTATASFVPDQGKAKVMLIDYRGVKNKASWCPIRIIGNAETKLFAWNAGIGNSTGIGFGAIK | not soluble
15 | MSLTYEKIKQLRENREITQKEISNALDINVSVYNKIELGIRPLREEELTAIADFFNVSIDYLTGRTDNPTTPSNNQKEAGQNIISHFRLNTNDLSSDDIEELEKELIDFQEFLIKRAKERKEGGSHHHHHH | soluble
16 | MARKRRAARVKDKWTLKKWFTLIAPEYFGMAELGETPADDASKVVGRTVETTLAELTNDYSNQNTYKKLIFKVYRVAGDNAYTKFWRFELTREYLNSLTRRRTSKIEDIVDVTTADGYKLRVKSVVFTVRRCKTSQKRAIRAIMRQIVVEKASSLNFVQFLQECVLGKVPAEIYKNAKKIYPIRRVEIRKIELLAEPAEAETQPAVAEAVALEHHHHHH | soluble
